Here are results for 2 molecules from patent US8648045B2, “VDAC1 compositions and methods of use thereof for regulating apoptosis” (Ben Gurion University of the Negev Research and Development …, priority 2005, dated 2014).

Positions count from the first letter of the chain named.

In one experiment the target is T1, Bcl2 (Homo sapiens, UniProt P10415).
T1 construct: GFP; expressed in transfected cells
The settings on record: expression of peptide N in cells overexpressing Bcl2-GFP; Abu Hamad et al., 2009; cited from earlier work.

Another experiment addresses T2, mitochondrial bound HK-I (Rattus norvegicus, UniProt P05708).
T2 construct: from tissue; host or cells: rat brain mitochondria
T2 sequence (P05708 1-918): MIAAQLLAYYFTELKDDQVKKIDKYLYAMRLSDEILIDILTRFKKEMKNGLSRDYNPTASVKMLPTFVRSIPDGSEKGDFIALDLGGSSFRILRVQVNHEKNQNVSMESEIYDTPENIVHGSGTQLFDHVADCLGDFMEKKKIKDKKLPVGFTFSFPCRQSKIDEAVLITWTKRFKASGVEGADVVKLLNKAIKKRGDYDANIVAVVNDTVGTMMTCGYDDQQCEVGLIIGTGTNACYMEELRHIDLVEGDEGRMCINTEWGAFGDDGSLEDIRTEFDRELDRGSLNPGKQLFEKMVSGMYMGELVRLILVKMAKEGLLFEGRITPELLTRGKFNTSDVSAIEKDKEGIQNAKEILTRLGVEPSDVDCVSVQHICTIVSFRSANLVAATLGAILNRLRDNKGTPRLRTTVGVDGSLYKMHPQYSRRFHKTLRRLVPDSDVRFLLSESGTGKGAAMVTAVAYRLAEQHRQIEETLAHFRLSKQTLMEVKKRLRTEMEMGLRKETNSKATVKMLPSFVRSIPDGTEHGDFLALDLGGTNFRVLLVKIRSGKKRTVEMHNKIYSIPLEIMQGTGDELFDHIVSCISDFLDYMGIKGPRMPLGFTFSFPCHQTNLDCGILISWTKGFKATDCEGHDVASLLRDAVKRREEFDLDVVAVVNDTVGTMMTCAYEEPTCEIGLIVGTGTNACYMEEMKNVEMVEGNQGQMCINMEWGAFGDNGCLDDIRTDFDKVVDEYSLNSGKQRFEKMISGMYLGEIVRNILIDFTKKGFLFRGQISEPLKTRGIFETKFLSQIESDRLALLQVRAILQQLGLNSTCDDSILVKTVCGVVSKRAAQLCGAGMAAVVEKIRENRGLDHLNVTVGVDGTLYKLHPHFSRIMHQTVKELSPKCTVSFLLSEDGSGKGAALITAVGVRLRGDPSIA
The experiment in a line: Detachment of mitochondria-bound HK-I. In kind it is biochemical. As to conditions: peptide N.

In another experiment the test system is U937 cells. The experiment in a line: HK-I over-expression protection against apoptotic cell death in double-transfected cells. In kind it is cell-based, human. The settings on record: staurosporine (STS). The method, then:
U937 cells were transfected with pcDNA3.1-HisA or pcDNA3.1-HisA-HK-I (neomycin resistance; provided by Dr. J. E. Wilson, University of Michigan) by electroporation, and grown in complete RPMI 1640 with neomycin ([…]). After 12 days, the selected cells were transfected with pEGFP, pEGFP-mVDAC1 or pEGFP-E72Q-mVDAC1 and were grown in the presence of neomycin ([…]). The viability of double-transfected cells was analyzed during 48 to 76 hr.
The effect of HK-I over-expression on apoptotic cell death of the GFP-tagged version of native and E72Q-mVDAC1 over-expressing cells was examined.
Since VDAC1 overexpression induces cell death, U937 cells (FIG. 4A, 4B) or T-Rex™ 293 human embryonic kidney cells (FIG. 4B) were first transformed to stably over-express HK-I and then transfected with native, E65Q, E72Q, K73L, D77N, N75A, or G67A mutated mVDAC1-GFP. […] This β-loop includes amino acid residues T64 to about N78.

For a further experiment, the system named is mitochondria. The experiment in a line: Release of cytochrome c from mitochondria. It counts as biochemical, rat. As to conditions: HK-I 1 U/ml; Western blot. The method, then:
Mitochondria (0.5 mg/ml) were incubated with or without 1 U/ml of HK-I for 20 min in a solution containing 150 mM KCl, 25 mM NaHCO3, 5 mM succinate, 1 mM MgCl2, 3 mM KH2PO4, 20 mM HEPES, pH 7.4. Swelling was monitored after the addition of 200 μM Ca^2+. Following complete swelling, the samples were centrifuged and mitochondrial pellets (25 μg) or supernatant (40 μl) were subjected to SDS-PAGE and Western blot analyses using monoclonal anti-cytochrome C antibodies.
(§1) FIG. 1A: Purified recombinant native or E72Q-mutated mVDAC1 was reconstituted into a PLB (planar lipid bilayer) in symmetrical solutions of 0.5 M NaCl. Currents through VDAC1 channel in response to a voltage step from zero to −20 mV were recorded before and 5 min after the addition of HK-I (28.6 mU/ml). The dashed lines indicate the zero-current level. […] FIG. 1C: Cytochrome c release was assayed, using a monoclonal anti-cytochrome c antibody, in the absence or the presence of HK-I (1 U/ml), chymotrypsin-treated HK-I (1 U/ml) or CsA (10 micro M).
The effects of HK-I are similar to those of the well-known inhibitor of PTP, cyclosporine A (CsA) (FIGS. 1C and 2B).

In experiment [1] the test system is permeability transition pore (PTP). The experiment in a line: PTP opening monitored by Ca2+ accumulation and mitochondrial swelling. It counts as biochemical, rat. The settings on record: Ca2+ accumulation and swelling of energized mitochondria. As to the method:
Ca^2+ uptake by freshly prepared rat liver mitochondria (0.5 mg/ml) was assayed for 1 to 20 minutes at 30° C. in the presence of 225 mM mannitol, 75 mM sucrose, 120 μM CaCl2 (containing 3×10^4 cpm/nmol [^45Ca^2+]), 5 mM HEPES/KOH, 5 mM succinate and 0.1 mM Pi, pH 7.0. Uptake of ^45Ca^2+ was terminated by rapid Millipore filtration followed by a wash with 5 ml of 150 mM KCl.
Ca^2+-induced mitochondria large amplitude swelling was assayed in freshly-prepared mitochondria under the same conditions as for Ca^2+ accumulation, except that the temperature was 24° C. Cyclosporine A (CsA)-sensitive mitochondrial swelling was initiated upon addition of Ca^2+ (0.2 mM) to the sample. Absorbance changes at 520 nm were monitored every 15-20 sec with an Ultraspec 2100 spectrophotometer.
The failure of non-binding species of HK, such as yeast HK, or trypsin- or chymotrypsin-treated HK-I (FIG. 2D) to prevent PTP opening, confirmed the specificity of the HK-I effect, and of the requirement of the HK-I N-terminal region for its interaction with VDAC.
Mitochondrial swelling was assayed in the absence (control ●) or the presence of HK-I (gray ●) and in presence HK-I pre-incubated with peptide LP1. Mitochondrial swelling was assayed as in FIG. 2 in the absence and the presence of peptide LP1 (0.1 mM or 0.3 mM), brain HK-I (0.25 U/ml) or with HK-I pre-incubated for 10 min with LP1. […]

For the next experiment, the target named is T3, E72Q-mVDAC1 (Mus musculus, UniProt Q60932, E72Q).
T3 construct: made in house; host or cells: yeast (purified from mitochondria of yeast expressing mutated mVDAC1)
The experiment in a line: VDAC channel recording in planar lipid bilayer (PLB). In kind it is biochemical. The settings on record: HK-I 28.6 mU/ml, 5 min; voltage step 0 to −20 mV; 0.5 M NaCl. The method, then: (§2) Native and mutated mVDAC1 were extracted with lauryldimethylamine N-oxide (LDAO) from mitochondria isolated from yeast expressing various VDACs, and purified by chromatography on hydroxyapatite followed by carboxymethyl (CM)-cellulose where LDAO was replaced by β-OG (β-octylglucoside).
(§3) Reconstitution of purified VDAC into a planar lipid bilayer (PLB) multi-channel current recording and data analyses were carried as follows. Briefly, PLB were prepared from soybean asolactin dissolved in n-decane (50 mg/ml) in a chamber containing 10 mM HEPES/KOH pH 7.4 and 0.5 or 1M NaCl (cis/trans). Only PLBs with a resistance greater than 100 GΩ were used. Purified VDAC (about 1 ng) was added to the chamber defined as the cis side. After one or a few channels inserted into the PLB, excess protein was removed by perfusion of the cis chamber with 20 volumes of a solution (with the same composition as before perfusion), in order to prevent further protein incorporation. Currents were recorded under voltage-clamp mode using a Bilayer Clamp amplifier (Warner Instrument, USA). The currents were measured with respect to the trans side of the membrane (ground). The currents were low-pass filtered at 1 kHz, using a Bessal filter (Frequency Devices, USA) and digitized on-line using a Digidata 1200 interface board and pCLAMP 6 software (Axon Instruments). Sigma Plot 2000 scientific software was used for data analyses. Experiments were performed at 23-25° C.
as §1
(§4) RuR, known to interact with several Ca^2+ binding proteins and to inhibit Ca^2+ transport in mitochondria, inhibited channel activity of native but not of E72Q-mutated VDAC1 (FIG. 5E). Purified recombinant native and E72Q-mVDAC1 variant were reconstituted into a planar lipid bilayer (PLB) and the currents produced in response to voltages stepped from a holding potential of 0 mV to −20 mV were recorded. […] The level of inhibition calculated from […] different experiments was 89.2±2.8% (mean±SD, n=9). In contrast, the channel activity of E72Q-mVDAC1 was not inhibited by RuR in all ten experiments.

For experiment [2], the target named is T4, recombinant native mVDAC1 (Mus musculus, UniProt Q60932).
T4 construct: made in house; host or cells: yeast (purified from mitochondria of yeast expressing mVDAC1)
The experiment is described as above. In kind it is biochemical. The settings on record: HK-I 28.6 mU/ml, 5 min; voltage step 0 to −20 mV; 0.5 M NaCl. The method, then:
as §2, §3, §1, §4

T1 sequence (P10415 whole entry, species assumed): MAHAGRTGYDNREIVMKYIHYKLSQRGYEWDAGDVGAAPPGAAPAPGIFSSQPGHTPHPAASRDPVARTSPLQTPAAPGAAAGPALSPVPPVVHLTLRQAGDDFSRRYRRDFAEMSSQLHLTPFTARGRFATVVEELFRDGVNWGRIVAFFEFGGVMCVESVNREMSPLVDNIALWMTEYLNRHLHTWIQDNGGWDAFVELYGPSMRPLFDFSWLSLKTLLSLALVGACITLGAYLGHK
T4 sequence (Q60932 14-296 limits assumed): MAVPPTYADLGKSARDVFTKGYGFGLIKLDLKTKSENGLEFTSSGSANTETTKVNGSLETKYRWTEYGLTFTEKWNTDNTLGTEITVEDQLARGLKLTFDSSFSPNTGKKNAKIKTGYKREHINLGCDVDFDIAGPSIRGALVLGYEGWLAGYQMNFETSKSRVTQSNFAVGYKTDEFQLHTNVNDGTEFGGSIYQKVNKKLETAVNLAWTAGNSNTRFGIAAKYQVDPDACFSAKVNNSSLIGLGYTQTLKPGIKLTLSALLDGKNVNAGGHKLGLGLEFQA
T3 sequence (Q60932 14-296 E72Q limits assumed): as the sequence (Q60932 14-296 limits assumed) above, with E59Q counted along it

In the case of “MAVPPTYADLGKSARDVFTKGYGFGL [Peptide N, 26 amino acid peptide derived from the N-terminal cytosolic segment of VDAC1, amino acids 1-26]”, the “effect on anti-apoptotic effect of Bcl2 against STS-induced apoptosis” value with Bcl2 is “reversed the anti-apoptotic effect of BCl2”. In addition, in the experiment with mitochondrial bound HK-I, the “detachment or prevention of HK-1 binding to the mitochondria” value is recorded as “Detachment or prevention of HK-1 binding to the mitochondria was also demonstrated”.

B1: HK-I: Hexokinase-I, anti-apoptotic mitochondrial protein that binds to VDAC; purified from rat brain or over-expressed recombinant (protein)
chain: T2 sequence (P05708 1-918)
Consider B1, for which the “protection by HK-I over-expression against STS-induced apoptosis” value with U937 cells is given as “protects against apoptosis induced by STS”. Moreover, in the experiment on mitochondria, the “release of cytochrome c from mitochondria” value is “prevented the release of cytochrome c from mitochondria”. Further, the “prevention of PTP opening” value in experiment [1] is “inhibited PTP opening”. The “effect of HK-I on VDAC1 channel” value was “able to close native VDAC1 but not mutated E72Q-VDAC1” in the experiment with E72Q-mVDAC1 and “induces its closure” in experiment [2].
